# Where a chain is given by its changes, count along the chain named.
# B1: 42G9 (antibody, V domains shown)
# VH: QVTLKESGPVLLKPTETLTLTCTVSGFSLSNPRMGVSWIRQPPGKALEWFAHIFSTDEKSLKLSLRSRLTLSKDTSKSQVVLTMTNMAPVDSATYYCARDSSNYEGYFDFWGQGTLVTVSS
# VL: EVVLTQSPATLSVSPGERATLSCRASQSVRSNLAWYQQKSGQAPRLLIYGSTIRATGVPARFSGSGSGTEFTLTISSLQSEDFAVYYCQQYSDWPFTFGPGTKVDIK
# notes: Hybridoma supernatant (AlivaMab mouse); captured/detected via mouse Fc; also called mAb 42G9
# B2: 12H6 (antibody, V domains shown)
# VH: B1 VH with L12V, P32A, F50L, L61I, K62R, L63R, A88D, S92T, F110Y
# VL: EVVMTQSPATLSVSPGERATLSCRASQGVSSNFAWYQQRPGQSPRLLLYGASTRATGVPGRFSGSGSGTENILTISSLQSEDFAIYFCQQYKDWPFTFGPGSKVDIK
# notes: Hybridoma supernatant (AlivaMab mouse); captured/detected via mouse Fc
# B3: 49B11 (antibody, V domains shown)
# VH: B1 VH with L12V, P32V, T56S, L61I, K62R, L63R, A88D, S92T, F110Y
# VL: EMEVTQSPATLSVSPGERATLSCRASQNIGSDLAWYQQQSGQAPRLLISGASTRATGVPTRFSGSGSGTDFTLTITSLQSEDFAVYYCQQYNDWPFTFGPGTKVDIK
# notes: as for B2
# B4: 19A9 (antibody, V domains shown)
# VH: B1 VH with K5E, L12V, P32A, L47P, K62R, A88D, S92T, F110Y
# VL: EVVMTQSPATLSVSPGERATLSCRASQSVNRNLAWYQQKPGQAPRLLIFGTSTRATGIPARFSGSGSGTEFTLTIDSLQSEHSGLYYCQQYNDWPFTFGPGTKVDIK
# notes: as for B2
# B5: 21E11 (antibody, V domains shown)
# VH: B1 VH with L12V, P32V, T56S, L61I, K62R, L63R, A88D, S92T
# VL: B3 VL with E1D, E3V, N28S, I29V, Q39P, S40P, A43S, S49Y, T60A, Q79E
# notes: as for B2
# B6: 14C11 (antibody, V domains shown)
# VH: B1 VH with L12V, S30N, P32A, L61F, K62R, L63T, A88D, S92T, F110Y, T115I
# VL: EIVMTQSPATLSVSPGERATLSCRASQSVSNNLAWYQQKPGQAPRLLIYGASTRATGVPARFSGSDSGTEFSLTISSLQSEDFAVYFCQQYKDWPFTFGPGTKVEIK
# notes: as for B2
# B7: 21E7 (antibody, V domains shown)
# VH: B1 VH with K5E, L12V, P32A, L47P, K62R, A88D, S92T, F110Y
# VL: B4 VL with E1D, M4L, R31S, K39N, T51S, R61S, D76N, G84A, L85V
# notes: as for B2
# B8: 46E10 (antibody, V domains shown)
# VH: B1 VH with L12V, P32A, F50L, L61I, K62R, L63R, T83I, A88D, S92T, F110Y
# VL: B2 VL with A9P, T10N, G28S, S30T, I85V
# notes: as for B2
# B9: 11B11 (antibody, V domains shown)
# VH: QVTLKESGPVLVKPTETLTLTCTVSGFSLSNAKMGVSWIRQPPGKALEWLAHIFSTDEKSIRRSLRSRLTMSKDTSKSQVVLTMTNMDPVDTATYYCVRDSSNYEGYFDYWGQGTLVTVSS
# VL: B2 VL with V3L, G28S, S31T, S43A, Y49F, V58I, D105E
# notes: as for B2
# B10: 32A10 (antibody, V domains shown)
# VH: B9 VH with K33R, M71L, Y96F, V98A
# VL: B2 VL with A19V, G28S, S43A, S52T, V58L
# notes: as for B2
# B11: 20B9 (antibody, V domains shown)
# VH: QVTLKESGPVLVKPTETLTLTCTVSGFSLSNARMGVSWIRQPPGKALEWLGHIFSTDEKSYSTSLRGRITISKDTSRGLVVLTLTNMDPVDTATYYCARDSSNYEGYFDFWGPGFLVTVSS
# VL: EIVMTQSPATLSVSPGERATLSCRVSQSIGANLAWYQQKFGQAPRLLIYGASTRATGIPVRFSGGGSGTEFTLTISSLQSEDFAIYSCQQYIYWPFTFGPGTTVDIK
# notes: as for B2
# B12: 12B2 (antibody, V domains shown)
# VH: B9 VH with A32P, K33R, A51G, T56S, I61Y, R63L, T70S, M71I, E105G
# VL: EVVMTQSPATLSVSPGERATLSCRASQSVINNLAWYQQKPGQAPRLLIYGTSTRATDIPARFSGSGSGTEFTLTISSLQSEDFAVYYCQDYNNWPFTFGPGTKVDIK
# notes: as for B2
# B13: 11F10 (antibody, V domains shown)
# VH: QVTLKESGPVLVKPIETLTLTCTVCGFSLSNPRMGVSWIRQPPGKALEWLGHIFSSDEKSYRLFLRSRLSISKDTSKSQVVLTMTNMDPVDTATYYCARDSSDYEGYFDYWGQGTLVTVSS
# VL: EIVMTQSPATLSVSPGERTTLSCRASQSVGSNLAWYQQKPGQAPRLLIYGASTRASGVPARFSGSGSGTEFTLTISSLQSEDFAVYSCQEYNNWPFTFGQGTKVEIK
# notes: as for B2
# B14: 29D5 (antibody, V domains shown)
# VH: QVTLKESGPVLVKPTETLTLTCTVSGFSLSNPRMGVSWLRQPPGKALEWFAHIFSTDEKSYSPSLRGRLTVSKDTSKSQVVLTLTNMDPVDTATYYCARDSSNYEGYFDYWGQGTLVTVSS
# VL: KIVMTQSPATLSVSPGERATLSCRANQIVSSNLAWYQQKPGQAPRLLVFGTSTRATGIPIRFSGSGSGTEFTLTVSSLQSEDFAVYVCQQYNDWPFTFGPGTKVDIK
# notes: as for B2
# B15: h62G7-L6/EQ scFv-Fc protein (Fc fusion)
# chain: DVVMTQSPLSLPVTLGQPASISCKSSQSLLYSNGKTYLNWFQQRPGQSPRRLIYQVSKLDSGVPDRFSGSGSGTDFTLKISRVEAEDVGVYYCGQDTHFPLTFGGGTKVEIKGGGGSGGGGSGGGGSGGGGSQVQLVQSGAEVKKPGASVKVSCKASGYTFTDYTLHWVRQAPGQGLEWMGGIWPITGGTTYNQKFKGRVTMTRDTSTSTVYMELSSLRSEDTAVYYCARGEAQGSWGQGTLVTVSS
# notes: not shown: human IgG1 Fc moiety
# Target: T1, human EGFRvIII expressed on cells (human, UniProt P00533 298-1210)
# T1 construct: the F98-npEGFRvIII line was obtained from ATCC and its construct is not described; also called F98-npEGFRvIII; F98-EGFRvIII
# Assay: flow cytometry, F98-npEGFRvIII against F98, F98-EGFRwt and A431 cells
row,fold MFI on EGFRvIII expressing cell line over non-expressing cell lines [fold],Binder
1,≥ 10,B1
2,≥ 10,B2
3,≥ 10,B3
4,≥ 10,B4
5,≥ 10,B5
6,≥ 10,B6
7,≥ 10,B7
8,≥ 10,B8
9,≥ 10,B9
10,≥ 10,B10
11,≥ 10,B11
12,≥ 10,B12
13,≥ 10,B13
14,≥ 10,B14

# Target: T2, Monomeric 8-histidine tagged human EGFRvIII extracellular domain (human, UniProt P00533 298-645)
# T2 construct: Analyte in all SPR assays; not shown: 8-histidine tag
# Assay: SPR, captured by anti-mouse Fc, 37 C
# From the text: To generate human antibodies against EGFRvIII, transgenic AlivaMab mice (Ablexis LLC, San Francisco, Calif.) were immunized with alternating schedule of paraformaldehyde-fixed rat glioblastoma cell line expressing EGFRvIII, F98-npEGFRvIII (American Type Culture Collection, Manassas, Va.) and peptides (SEQ ID NO: 227: […]) directed to the junction region in EGFRvIII. Hybridomas were generated using standard techniques. To determine the binding affinity and specificity of these hybridomas to EGFRvIII, antibodies in culture supernatants were captured by anti-mouse Fc using Biacore™ T200 biosensor equipped with anti-mouse Fc coupled CM4 sensor chips (Biacore™ AB, Uppsala, Sweden—now GE Healthcare). Monomeric 8-histidine tagged human EGFRvIII extracellular domain was then injected as the analyte at 10-fold dilution series starting with top concentration 1000 nM. Affinity of anti-EGFRvIII antibodies towards human EGFRvIII was measured at 37° C.
Kd [nM],koff [s⁻¹],kon [M⁻¹ s⁻¹],Binder
8.2,0.000563,68800,B1
12.4,0.000733,59300,B2
9.1,0.000695,76400,B3
18.6,0.00104,55800,B4
9.5,0.000632,66600,B5
78.5,0.00593,75500,B6
19.9,0.0013,65200,B7
12,0.000716,59700,B8
21.7,0.00113,52100,B9
9.6,0.000626,65400,B10
32.1,0.0015,46700,B11
24.3,0.00179,73800,B12
42.4,0.00281,66300,B13
41.6,0.00424,102000,B14

# Target: T3, 8-histidine tagged recombinant wild-type protein EGFRwt (UniProt P00533 25-645, limits assumed)
# T3 construct: not shown: 8-histidine tag
# Assay: SPR, captured by anti-mouse Fc
row,binding result,Binder
1,no binding (tested: 1000 nM),B1
2,no binding (tested: 1000 nM),B2
3,no binding (tested: 1000 nM),B3
4,no binding (tested: 1000 nM),B4
5,no binding (tested: 1000 nM),B5
6,no binding (tested: 1000 nM),B6
7,no binding (tested: 1000 nM),B7
8,no binding (tested: 1000 nM),B8
9,no binding (tested: 1000 nM),B9
10,no binding (tested: 1000 nM),B10
11,no binding (tested: 1000 nM),B11
12,no binding (tested: 1000 nM),B12
13,no binding (tested: 1000 nM),B13
14,no binding (tested: 1000 nM),B14

# Target: T2, Monomeric 8-histidine tagged human …
# Assay: SPR, scFv-Fc captured by anti-human Fc, 37 C
# Description: The scFv fragment was then fused to human IgG1 Fc moiety to facilitate recombinant expression and purification. Affinities of the scFv-Fc fusion proteins were measured at 37° C. on a surface plasmon resonance Biacore™ T200 biosensor equipped with an anti-human Fc coupled CM4 sensor chip (GE Healthcare Inc., Piscataway, N.J.) as described above. scFv-Fc proteins were captured by anti-human Fc. Monomeric 8-histidine tagged human EGFRvIII extracellular domain was then injected as the analyte at 10-fold dilution series starting at 1000 nM.
Kd [nM],koff [s⁻¹],kon [M⁻¹ s⁻¹],Binder
101,0.076,750000,B15

# Target: T3, 8-histidine tagged recombinant …
# Assay: SPR, captured by anti-human Fc, 25 C
row,binding result,Binder
1,no binding (tested: 1000 nM),B15

# Target: T1, human EGFRvIII expressed on cells
# Assay: flow cytometry, F98-npEGFRvIII cells
% positive [%],MFI,Binder
98.5,3250,B1
98.3,3440,B2
98.5,2980,B3
98.1,3100,B4
98.5,3100,B5
98.2,3210,B6
98.5,3100,B7
98.7,2990,B8
98.2,3390,B9
98.3,3350,B10
98.3,3420,B11
97.9,2750,B12
98,3280,B13
97.9,2830,B14
